# How the values were obtained:
# CD19 = target: T1, CD19 (UniProt P15391 20-291, limits assumed); assay: not stated (column 'Affinity' of Table 1)
# T1 construct: The antigen construct is not described
# T1 sequence (looked up): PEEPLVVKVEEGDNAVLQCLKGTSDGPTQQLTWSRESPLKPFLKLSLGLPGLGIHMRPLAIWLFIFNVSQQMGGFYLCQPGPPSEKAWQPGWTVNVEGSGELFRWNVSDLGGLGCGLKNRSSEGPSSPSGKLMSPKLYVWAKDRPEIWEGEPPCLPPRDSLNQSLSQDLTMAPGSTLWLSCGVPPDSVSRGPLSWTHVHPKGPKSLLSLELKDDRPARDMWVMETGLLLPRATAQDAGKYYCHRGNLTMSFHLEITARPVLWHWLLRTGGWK
# TRBC1 = target: T2, TRBC1 (UniProt P01850 1-130, limits assumed); assay: not stated (column 'Affinity' of Table 1)
# T2 construct: The antigen construct is not described; also called T cell receptor β chain constant 1; Cβ1 TCR
# [1] = target: T3, TRBV5-5 on human T cells and HPB-ALL cells (human, UniProt A0A597 22-114); assay: cell-based or functional assay
# T3 sequence (TCR beta, looked up): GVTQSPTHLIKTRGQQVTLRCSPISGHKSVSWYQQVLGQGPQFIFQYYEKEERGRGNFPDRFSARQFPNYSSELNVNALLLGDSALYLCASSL
# [2] = target: T3, TRBV5-5 on human T cells and HPB-ALL …; assay: cell-based or functional assay; remark: listed apart in the source
# TRBV12-3 on Jurkat cells [3] = target: T4, TRBV12-3 on Jurkat cells (human, UniProt P01733 22-115); assay: cell-based or functional assay
# T4 sequence (TCR beta, looked up): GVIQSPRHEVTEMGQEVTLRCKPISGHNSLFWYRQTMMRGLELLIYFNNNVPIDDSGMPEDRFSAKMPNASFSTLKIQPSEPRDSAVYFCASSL
# TRBV12-3 on Jurkat cells [4] = target: T4, TRBV12-3 on Jurkat cells; assay: cell-based or functional assay; remark: listed apart in the source
# TRBV5-5 = target: T5, TRBV5-5 (UniProt A0A597 22-114, limits assumed); assay: not stated (column 'Affinity' of Table 1)
# T5 construct: The antigen construct is not described; also called T cell receptor β chain variable 5-5
# T5 sequence (TCR beta, looked up): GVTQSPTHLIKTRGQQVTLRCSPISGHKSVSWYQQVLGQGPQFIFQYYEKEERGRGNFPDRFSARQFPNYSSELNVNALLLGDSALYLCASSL
# CD3 = target: T6, CD3 (UniProt P07766 23-126); assay: not stated (column 'Affinity' of Table 1)
# T6 construct: The antigen construct is not described; also called cluster of differentiation 3; CD3ε subunit
# TRBV12 = target: T7, TRBV12; assay: not stated (column 'Affinity' of Table 1)
# T7 chain: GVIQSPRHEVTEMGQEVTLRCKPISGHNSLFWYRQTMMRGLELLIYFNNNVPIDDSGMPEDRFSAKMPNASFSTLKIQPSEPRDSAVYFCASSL
# T2 sequence (P01850 1-130 limits assumed): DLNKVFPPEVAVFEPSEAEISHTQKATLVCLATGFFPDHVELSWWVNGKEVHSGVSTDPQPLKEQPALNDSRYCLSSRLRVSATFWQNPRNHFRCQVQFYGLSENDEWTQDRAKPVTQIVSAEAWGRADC
# T6 sequence (P07766 23-126): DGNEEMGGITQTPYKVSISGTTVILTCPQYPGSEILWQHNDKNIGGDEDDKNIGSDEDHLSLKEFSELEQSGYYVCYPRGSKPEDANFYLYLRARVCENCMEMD
binder,measurement,setting,value
"α-CD19 scFv (clone HD37) (scFv, V domains shown, also called anti-CD19 scFv) VH: QVQLQQSGAELVRPGSSVKISCKASGYAFSSYWMNWVKQRPGQGLEWIGQIWPGDGDTNYNGKFKGKATLTADESSSTAYMQLSSLASEDSAVYFCARRETTTVGRYYYAMDYWGQGTTVTVSS VL: DIQLTQSPASLAVSLGQRATISCKASQSVDYDGDSYLNWYQQIPGQPPKLLIYDASNLVSGIPPRFSGSGSGTDFTLNIHPVEKVDAATYHCQQSTEDPWTFGGGTKLEIK",Kd,CD19,0.3 nM
"α-TRBC1 scFv (clone Jovi-1) (scFv, V domains shown, also called anti-TRBC1 scFv) VH: EVRLQQSGPDLIKPGASVKMSCKASGYTFTGYVMHWVKQRPGQGLEWIGFINPYNDDIQSNERFRGKATLTSDKSSTTAYMELSSLTSEDSAVYYCARGAGYNFDGAYRFFDFWGQGTTLTVSS VL: DVVMTQSPLSLPVSLGDQASISCRSSQRLVHSNGNTYLHWYLQKPGQSPKLLIYRVSNRFPGVPDRFSGSGSGTDFTLKISRVEAEDLGIYFCSQSTHVPYTFGGGTKLEIKR",Kd,TRBC1,0.4 nM
anti-TRBV5-5 BsAb (α-V5) (bispecific antibody) DIQMTQTTSSLSASLGDRVTITCSASQGISNYLNWYQQKPDGTVKLLIYYTSSLHSGVPSRFSGSGSGTDYSLTISNLEPEDIATYYCQQYSKLPRTFGGGTKVEIKGGGGSEVQLVESGGGLVQPGGSLRLSCAASGYSFTGYTMNWVRQAPGKGLEWVALINPYKGVSTYNQKFKDRFTISVDKSKNTAYLQMNSLRAEDTAVYYCARSGYYGDSDWYFDVWGQGTLVTVSSGGGGSGGGGSGGGGSDIQMTQSPSSLSASVGDRVTITCRASQDIRNYLNWYQQKPGKAPKLLIYYTSRLESGVPSRFSGSGSGTDYTLTISSLQPEDFATYYCQQGNTLPWTFGQGTKVEIKGGGGSQVQLKESGPGLVAPSQSLSITCTVSGFSLTAYGVNWVRQPPGKGLEWLGMIWGDGNTDYNSALKSRLSISKDNSKSQVFLKMNSLQTDDTARYYCARDRVTATLYAMDYWGQGTSVTVSSHHHHHH,"EC50 of the loss of HPB-ALL viability (luminescence), 5x10^4 HPB-ALL cells with 5x10^4 normal human T cells, 17 hours",[1],0.00209 nM
same,"EC50 of GM-CSF release (Luminex), HPB-ALL WT + T cells, 17 hours",[2],0.0423 nM
same,"EC50 of IFNγ release (Luminex), HPB-ALL WT + T cells, 17 hours",[2],0.0311 nM
same,"EC50 of IL2 release (Luminex), HPB-ALL WT + T cells, 17 hours",[2],0.0945 nM
same,"EC50 of IL5 release (Luminex), HPB-ALL WT + T cells, 17 hours",[2],0.0544 nM
same,"EC50 of TNFα release (Luminex), HPB-ALL WT + T cells, 17 hours",[2],0.166 nM
anti-TRBV12 BsAb (α-V12) (bispecific antibody) ENVLTQSPAIMSASLGEKVTMSCRASSSVNYIYWYQQKSDASPKLWIYYTSNLAPGVPTRFSGSGSGNSYSLTISSMEGEDAATYYCQQFTSSPFTFGQGTKLEIKGGGGSEVQLVESGGGLVQPGGSLRLSCAASGYSFTGYTMNWVRQAPGKGLEWVALINPYKGVSTYNQKFKDRFTISVDKSKNTAYLQMNSLRAEDTAVYYCARSGYYGDSDWYFDVWGQGTLVTVSSGGGGSGGGGSGGGGSDIQMTQSPSSLSASVGDRVTITCRASQDIRNYLNWYQQKPGKAPKLLIYYTSRLESGVPSRFSGSGSGTDYTLTISSLQPEDFATYYCQQGNTLPWTFGQGTKVEIKGGGGSDVQLVESGGGLVQPGGSRKLSCAASGFTFSNFGMHWVRQAPDKGLEWVAYISSGSSTIYYADTLKGRFTISRDNPKNTLFLQMTSLRSEDTAMYYCARRGEGAMDYWGQGTSVTVSSHHHHHH,"EC50 of GM-CSF release (Luminex), Jurkat WT + T cells, 17 hours",TRBV12-3 on Jurkat cells [3],0.0121 nM
same,"EC50 of IFNγ release (Luminex), Jurkat WT + T cells, 17 hours",TRBV12-3 on Jurkat cells [3],0.0235 nM
same,"EC50 of IL2 release (Luminex), Jurkat WT + T cells, 17 hours",TRBV12-3 on Jurkat cells [3],0.0205 nM
same,"EC50 of IL5 release (Luminex), Jurkat WT + T cells, 17 hours",TRBV12-3 on Jurkat cells [3],0.0124 nM
same,"EC50 of TNFα release (Luminex), Jurkat WT + T cells, 17 hours",TRBV12-3 on Jurkat cells [3],0.0138 nM
same,"EC50 of the loss of Jurkat viability (luminescence), 5x10^4 Jurkat cells with 5x10^4 normal human T cells, 17 hours",TRBV12-3 on Jurkat cells [4],0.00078 nM
"α-TRBV5-5 scFv (clone TM23) (scFv, V domains shown, also called anti-TRBV5-5 scFv) VH: QVQLKESGPGLVAPSQSLSITCTVSGFSLTAYGVNWVRQPPGKGLEWLGMIWGDGNTDYNSALKSRLSISKDNSKSQVFLKMNSLQTDDTARYYCARDRVTATLYAMDYWGQGTSVTVSS VL: DIQMTQTTSSLSASLGDRVTITCSASQGISNYLNWYQQKPDGTVKLLIYYTSSLHSGVPSRFSGSGSGTDYSLTISNLEPEDIATYYCQQYSKLPRTFGGGTKVEIK",Kd,TRBV5-5,25.2 nM
"α-CD3 scFv (clone UCHT1.v9) (scFv, V domains shown, also called anti-CD3 scFv) VH: EVQLVESGGGLVQPGGSLRLSCAASGYSFTGYTMNWVRQAPGKGLEWVALINPYKGVSTYNQKFKDRFTISVDKSKNTAYLQMNSLRAEDTAVYYCARSGYYGDSDWYFDVWGQGTLVTVSS VL: DIQMTQSPSSLSASVGDRVTITCRASQDIRNYLNWYQQKPGKAPKLLIYYTSRLESGVPSRFSGSGSGTDYTLTISSLQPEDFATYYCQQGNTLPWTFGQGTKVEIK",Kd,CD3,4.7 nM
"α-TRBV12 scFv (clone 16G8) (scFv, V domains shown, also called anti-TRBV12 scFv) VH: DVQLVESGGGLVQPGGSRKLSCAASGFTFSNFGMHWVRQAPDKGLEWVAYISSGSSTIYYADTLKGRFTISRDNPKNTLFLQMTSLRSEDTAMYYCARRGEGAMDYWGQGTSVTVSS VL: ENVLTQSPAIMSASLGEKVTMSCRASSSVNYIYWYQQKSDASPKLWIYYTSNLAPGVPTRFSGSGSGNSYSLTISSMEGEDAATYYCQQFTSSPFTFGQGTKLEIK",Kd,TRBV12,2.6 nM

# Source: patent publication US20240002541A1 (Johns Hopkins, published 2024)
